Experimental data reported in US20040042961.

Columns and labels:
[1] = tested on: GFP double loop insertion mutant at positions 157-158 and 174-175 with GGGG-LETD-GGGGG (caspase 8 sites)
[2] = tested on: GFP single insertion mutant K157-Q158 (GGGGFFRSGGGG inserted)
[3] = tested on: GFP single insertion mutant D174-G175 (GGGGFFRSGGGG inserted)
[4] = tested on: GFP single insertion mutant G117-D118 (GGGGFFRSGGGG inserted)
[5] = tested on: GFP single insertion mutant K102-D103 (GGGGFFRSGGGG inserted)
[6] = tested on: recombinant GFP-His protein (wild type GFP)
[7] = tested on: substitution mutants (GFP sequence substituted with FRS at various positions; fifteen fluorescent of twenty)
[8] = tested on: GFP single insertion mutant T39-Y40 (GGGGFFRSGGGG inserted)
[9] = tested on: GFP double insertion mutant K157-Q158 and D174-G175 (cathepsin L sites)

Chain of cathepsin L (chain, as listed by the source): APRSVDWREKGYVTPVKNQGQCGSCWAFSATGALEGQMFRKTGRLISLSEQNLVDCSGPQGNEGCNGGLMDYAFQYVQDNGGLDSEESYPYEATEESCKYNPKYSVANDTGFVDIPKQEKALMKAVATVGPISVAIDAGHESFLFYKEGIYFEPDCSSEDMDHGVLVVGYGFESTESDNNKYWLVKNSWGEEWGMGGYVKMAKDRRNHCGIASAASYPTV

caspase 8
Cleavage at sequence introduced [1]: (yes)

cathepsin L
Cleavage at sequence introduced [2]: Yes
Cleavage at sequence introduced [3]: Yes
Cleavage at sequence introduced [4]: No
Cleavage at sequence introduced [5]: Yes
GFP fluorescence and SDS-PAGE band on incubation with 400 nM cathepsin L at pH 5.5 and 4.8 [6]: A time-dependent decrease in GFP fluorescence was observed (FIG. 10A), with concommitant disappearance of the GFP band on SDS-PAGE
specific cleavage (SDS-PAGE) [7]: fifteen mutants were fluorescent and therefore properly folded, but only one of them was specifically cleaved by cathepsin L
Cleavage at sequence introduced [8]: Yes
Cleavage at sequence introduced [9]: (yes)
